Reference: patent US8765433B2, “Alcohol dehydrogenases (ADH) useful for fermentive production of lower alkyl alcohols” (Butamax Advanced Biofuels LLC, priority 2009, dated 2014)

B1: EhADH1: Entamoeba histolytica ADH1, SEQ ID NO: 30 (protein, listed as Entamoeba histolytica)
chain: MKGLAMLGIGRIGWIEKKIPECGPLDALVRPLALAPCTSDTHTVWAGAIGDRHDMILGHEAVGQIVKVGSLVKRLKVGDKVIVPAITPDWGEEESQRGYPMHSGGMLGGWKFSNFKDGVFSEVFHVNEADANLALLPRDIKPEDAVMLSDMVTTGFHGAELANIKLGDTVCVIGIGPVGLMSVAGANHLGAGRIFAVGSRKHCCDIALEYGATDIINYKNGDIVEQILKATDGKGVDKVVIAGGDVHTFAQAVKMIKPGSDIGNVNYLGEGDNIDIPRSEWGVGMGHKHIHGGLTPGGRVRMEKLASLISTGKLDTSKLITHRFEGLEKVEDALMLMKNKPADLIKPVVRIHYDDEDTLH
B2: RpADH8: Rana perezi ADH8, SEQ ID NO: 28 (protein, listed as Rama perezi)
chain: MCTAGKDITCKAAVAWEPHKPLSLETITVAPPKAHEVRIKILASGICGSDSSVLKEIIPSKFPVILGHEAVGVVESIGAGVTCVKPGDKVIPLFVPQCGSCRACKSSNSNFCEKNDMGAKTGLMADMTSRFTCRGKPIYNLVGTSTFTEYTVVADIAVAKIDPKAPLESCLIGCGFATGYGAAVNTAKVTPGSTCAVFGLGGVGFSAIVGCKAAGASRIIGVGTHKDKFPKAIELGATECLNPKDYDKPIYEVICEKTNGGVDYAVECAGRIETMMNALQSTYCGSGVTVVLGLASPNERLPLDPLLLLTGRSLKGSVFGGFKGEEVSRLVDDYMKKKINVNFLVSTKLTLDQINKAFELLSSGQGVRSIMIY
B3: BtARD: Bos Taurus Aldehyde Reductase, SEQ ID NO: 27 (protein, listed as Bos taurus)
chain: MAASCILLHTGQKMPLIGLGTWKSDPGQVKAAIKYALSVGYRHIDCAAIYGNETEIGEALKENVGPGKLVPREELFVTSKLWNTKHHPEDVEPALRKTLADLQLEYLDLYLMHWPYAFERGDSPFPKNADGTIRYDSTHYKETWRALEALVAKGLVRALGLSNFNSRQIDDVLSVASVRPAVLQVECHPYLAQNELIAHCQARNLEVTAYSPLGSSDRAWRDPEEPVLLKEPVVLALAEKHGRSPAQILLRWQVQRKVSCIPKSVTPSRILENIQVFDFTFSPEEMKQLDALNKNLRFIVPMLTVDGKRVPRDAGHPLYPFNDPY
B4: BiADH: ADH of Beijerinckia indica subsp. Indica ATCC 9039, SEQ ID NO: 31 (protein, listed as Beijerickia indica)
chain: MKALVYRGPGQKLVEERQKPELKEPGDAIVKVTKTTICGTDLHILKGDVATCKPGRVLGHEGVGVIESVGSGVTAFQPGDRVLISCISSCGKCSFCRRGMFSHCTTGGWILGNEIDGTQAEYVRVPHADTSLYRIPAGADEEALVMLSDILPTGFECGVLNGKVAPGSSVAIVGAGPVGLAALLTAQFYSPAEIIMIDLDDNRLGLAKQFGATRTVNSTGGNAAAEVKALTEGLGVDTAIEAVGIPATFELCQNIVAPGGTIANVGVHGSKVDLHLESLWSHNVTITTRLVDTATTPMLLKTVQSHKLDPSRLITHRFSLDQILDAYETFGQAASTQALKVIISMEA
B5: ScADH6: Saccharomyces cerevisiae ADH6 alcohol dehydrogenase, SEQ ID NO: 22 (protein, listed as Saccharomyces cerevisiae)
chain: MSYPEKFEGIAIQSHEDWKNPKKTKYDPKPFYDHDIDIKIEACGVCGSDIHCAAGHWGNMKMPLVVGHEIVGKVVKLGPKSNSGLKVGQRVGVGAQVFSCLECDRCKNDNEPYCTKFVTTYSQPYEDGYVSQGGYANYVRVHEHFVVPIPENIPSHLAAPLLCGGLTVYSPLVRNGCGPGKKVGIVGLGGIGSMGTLISKAMGAETYVISRSSRKREDAMKMGADHYIATLEEGDWGEKYFDTFDLIVVCASSLTDIDFNIMPKAMKVGGRIVSISIPEQHEMLSLKPYGLKAVSISYSALGSIKELNQLLKLVSEKDIKIWVETLPVGEAGVHEAFERMEKGDVRYRFTLVGYDKEFSD
B6: VpADH: Vanderwaltozyma polyspora DSM 70294 ADH, SEQ ID NO: 38 (protein)
chain: MSYPEKFQGIGITNREDWKHPKKVTFEPKQFNDKDVDIKIEACGVCGSDVHCAASHWGPVAEKQVVGHEIIGRVLKVGPKCTTGIKVGDRVGVGAQAWSCLECSRCKSDNESYCPKSVWTYSIPYIDGYVSQGGYASHIRLHEHFAIPIPDKLSNELAAPLLCGGITVYSPLLRNGCGPGKKVGIVGIGGIGHMGLLFAKGMGAEVYAFSRTHSKEADAKKLGADHFIATLEDKDWTTKYFDTLDLLVICASSLTDINFDELTKIMKVNTKIISISAPAADEVLTLKPFGLIGVTIGNSAIGSRREIEHLLNFVAEKDIKPWVETLPVGEAGVNEAFERMDKGDVKYRFTLVDFDKEFGN
modifications: Vanderwaltozyma polyspora DSM 70294
B7: McADH: Mucor circinelloides ADH, SEQ ID NO: 39 (protein)
chain: MSEETFTAWACKSKSAPLEPMEMTFCHWDDDMVQMDVICCGVCGTDLHTVDEGWGPTEFPCVVGHEIIGNVTKVGKNVTRIKVGDRCGVGCQSASCGKCDFCKKGMENLCSTHAVWTFNDRYDNATKDKTYGGFAKKWRGNQDFVVHVPMDFSPEVAASFLCGGVTTYAPLKRYGVGKGSKVAVLGLGGLGHFGVQWAKAMGAEVVAFDVIPDKVDDAKKLGCDDYVLMQKEEQMEPHYNTFTHILATKIVNKCWDQYFKMLKNNGIFMLCDIPEVPLSGMSAFVMAGKQLTIAGTFIGSPSVIQECLDFAAKHNVRTWVNTFPMEKINEAFEFVRQAKPRYRAVVMN
modifications: Mucor circinelloides

Legend:
Assay type in all cases: biochemical
[1] = ADH activity assays of cell extracts and purified proteins; conditions: cell extracts or purified protein, initial experiments
Procedure: (§1) As a routine practice, the crude extracts and purified proteins were assayed for butanol oxidation activity, in order to ensure that the recombinant proteins were active throughout the purification process. […] Alcohol oxidation activities were carried out in 50 mM sodium phosphate buffer at pH 8.8 and aldehyde reduction reactions were assayed in 190 mM potassium phosphate buffer at pH 7.0. Depending on the nature of reaction being carried out, the enzyme and cofactor stocks were diluted in the reaction buffers at the respective pHs. Either buffer or cell extract prepared from the proprietary E. coli strain (with no ADH plasmid) was used as the negative control for assays with purified protein and cell-free extracts, respectively.
(§2) In initial experiments, there were insufficient levels of protein expression with EhADH1 and RpADH8. […] It is believed that one of skill in the art could further optimize expression and assay conditions for these candidates. Sufficient amounts of active protein could be purified with all other enzymes for which data are presented. […]

[2] = Cofactor specificity in isobutyraldehyde reduction reactions; conditions: for COFACTOR PREFERENCE: isobutyraldehyde reduction, NADH or NADPH as cofactor
Procedure: as §1, §2

[3] = Semi-physiological time-course assay with and without 321 mM isobutanol
Text: The ideal way to characterize and compare various ADH candidates would be to calculate and compare the full set of kinetic constants, i.e., kcat values for aldehyde reduction and alcohol oxidation, KM values for isobutyraldehyde, isobutanol, NAD(P) and NAD(P)H, and KI values for isobutyraldehyde and isobutanol. A detailed characterization for numerous candidates would require considerable expenditure of time, effort and money. Thus, a qualitative assay was developed to allow for quick and efficient comparison of several candidates. A semi-physiological assay was designed to compare the performance of various enzymes. The assays entail the initiation of all reactions with a constant amount of each enzyme. […] Each reaction's time course was followed for 10 min by measuring the decrease in absorbance at 340 nm, as the reaction proceeds towards equilibrium. An enzyme with a high kcat, would drive the reaction towards equilibrium faster than an enzyme with a lower kcat. A parallel assay was also carried out under identical conditions, but with the inclusion of 321 mM isobutanol (24 g/L) in the reaction. An enzyme that is relatively uninhibited by this concentration of isobutanol would have a time course that closely mimics the time course in the absence of isobutanol.

[4] = Isobutanol oxidation assay; conditions: Table 8
Procedure: as §1
Kinetic constants of the ADH enzymes were calculated and compared to identify those candidate ADH enzymes with the most desirable properties for the conversion of isobutyraldehyde to isobutanol in the last step of the engineered pathway for isobutanol production. The assays for determining the kinetic constants were carried out using initial rates from the assays described above. […] The concentration of a given enzyme was such that it was conducive for the measurement of initial velocities over a 1-min time course. For each enzyme, Michaelis-Menten plots were generated with a broad range of substrate concentrations. Rough estimates of KM were obtained, based on which the assays were redesigned so as to use substrate concentrations in the range 0.5 to 10 times the KM value, to be able to obtain the appropriate kinetic constants. […] When calculating the KI for isobutanol, the same reactions were carried out in the presence of varying concentrations of isobutanol (generally 0-535 mM) in the reaction (see FIG. 7, for example). Reactions with isobutanol substrate were performed at 30° C. in 50 mM Sodium phosphate buffer, pH 8.8, containing 7.5 mM NAD. The Enzyme kinetics module (Version 1.3) of SigmaPlot 11 (Systat Software, Inc.) was used to fit data to Michaelis-Menten equations and calculate the kinetic constants. The kcat/KM is derived from the individual numbers of kcat and KM and not an experimentally determined value. The ratios of the KM, KI, and kcat/KM for each candidate enzyme as compared to the same parameter for SadB are given in Table 9.

Molecule	ADH activity [1]	COFACTOR PREFERENCE [2]	also measured
B1	failed to detect ADH activity	–	–
B2	failed to detect ADH activity	–	–
B3	no detectable activity	–	–
B4	–	NADH	kcat for the isobutyraldehyde reduction reaction (inferred from time courses, FIG. 1) ([3]; 1 ug enzyme, 1 mM isobutyraldehyde, 200 μM NADH, 10 min): likely to have the highest kcat
B5	–	NADPH	Other enzymatic properties and cofactor preference ([2]; Table 7): NADPH specific; inhibition by isobutanol (inferred from time courses, FIG. 1) ([3]; 321 mM isobutanol (24 g/L)): likely to be the least inhibited
B6	no detectable activity	–	–
B7	–	NADH	conversion of isobutanol to isobutyraldehyde [4]: No measureable; Other enzymatic properties and cofactor preference ([2]; Table 8): NADH specific
